Data reported in PMC3462211, “3D Domain Swapping Causes Extensive Multimerisation of Human Interleukin-10 When Expressed In Planta” (PLoS ONE, 2012).
Blank lines part the entries; values can stand above or below the molecule they belong to.

How the values were obtained:
[1] = biological target: human IL-10^mono fused to the C-terminus of constant domains 2 and 3 of human immunoglobulin A2m1 (Fcα-hIL-10^mono), plant produced (human) (UniProt P22301); assay: non-reducing SDS-PAGE with Western blot; soluble plant proteins (crude leaf extract, desalted on G25 Sephadex, filter sterilised) separated under non-reducing conditions on a NuPAGE 12% Bis-Tris gel; detected with antibodies against hIL-10 or IgA
[2] = biological target: human IL-10 fused to the C-terminus of constant domains 2 and 3 of human immunoglobulin A2m1 (Fcα-hIL-10), plant produced (human) (UniProt P22301); assay: as above
[3] = biological target: the molecule itself; assay: as above
[4] = biological target: the molecule itself; assay: non-reducing SDS-PAGE with Western blot; 50 ng recombinant E. coli produced hIL-10 (R&D Systems) separated under non-reducing conditions on a NuPAGE 12% Bis-Tris gel; detected with an antibody against hIL-10

- stoichiometry N [1]: 2
Molecule: human IL-10^mono fused to the C-terminus of constant domains 2 and 3 of human immunoglobulin A2m1 (Fcα-hIL-10^mono), plant produced (from UniProt P22301 19-178) (Fc fusion)

- stoichiometry N [2]: 2
Molecule: human IL-10 fused to the C-terminus of constant domains 2 and 3 of human immunoglobulin A2m1 (Fcα-hIL-10), plant produced (from UniProt P22301 19-178) (Fc fusion)

B1: plant produced human interleukin-10 (natural protein, UniProt P22301 19-178, looked up)
chain: SPGQGTQSENSCTHFPGNLPNMLRDLRDAFSRVKTFFQMKDQLDNLLLKESLLEDFKGYLGCQALSEMIQFYLEEVMPQAENQDPDIKAHVNSLGENLKTLRLRLRRCHRFLPCENKSKAVEQVKNAFNKLQEKGIYKAMSEFDIFINYIEAYMTMKIRN
notes: signal peptide in the construct; human interleukin-10, complete native open reading frame (178 amino acids including the N-terminal signal peptide); the NcoI site adds two extra amino acids to the N-terminus of the signal peptide; Secreted through its own signal peptide; also called hIL-10; human IL-10; source: Nicotiana benthamiana leaves, agro-infiltrated (transient), in desalted crude extract
- stoichiometry N [3]: ≥ 2

B2: recombinant E. coli produced human IL-10 (natural protein, UniProt P22301 19-178, looked up)
chain: SPGQGTQSENSCTHFPGNLPNMLRDLRDAFSRVKTFFQMKDQLDNLLLKESLLEDFKGYLGCQALSEMIQFYLEEVMPQAENQDPDIKAHVNSLGENLKTLRLRLRRCHRFLPCENKSKAVEQVKNAFNKLQEKGIYKAMSEFDIFINYIEAYMTMKIRN
notes: human interleukin-10, recombinant, E. coli produced, 18 kDa on the blot; also called r hIL-10; E. coli produced hIL-10; source: bought: R&D Systems (recombinant, E. coli produced)
- stoichiometry N [4]: ≥ 2
